Data from PMC6879612 (2019).

Molecular target: p53_(125–134)/HLA-A24 pMHC, soluble recombinant (human | , UniProt P61769 21-119; P04637 125-134, biotin where the biotinylated pMHC was used (site not stated))
Assay: SPR

B1: P1C1gl (germline sequence converted P1C1), human IgG1 (antibody, V domains shown)
VH: QVQLQESGPGLVKPSQTLSLTCTVSGGSISSGGYYWSWIRQHPGKGLEWIGYIYYSGSTYYNPSLKSRVTISVDTSKNQFSLKLSSVTAADTAVYYCARENFGAFDHWGQGTLVTVSS
VL: QSVLTQPPSVSGAPGQRVTISCTGSSSNIGADYETHWYQQLPGTAPKLLIYGNTNRPSGVPDRFSGSKSGTSASLAITGLQAEDEADYYCQSYDSNLSAWVFGGGTKLTIL
With B1 the koff was 0.139 s⁻¹.
